{"source": "patent US20240002503A1", "target": "LILRB2 (human) (UniProt Q8N423)", "sequence (Q8N423 22-597)": "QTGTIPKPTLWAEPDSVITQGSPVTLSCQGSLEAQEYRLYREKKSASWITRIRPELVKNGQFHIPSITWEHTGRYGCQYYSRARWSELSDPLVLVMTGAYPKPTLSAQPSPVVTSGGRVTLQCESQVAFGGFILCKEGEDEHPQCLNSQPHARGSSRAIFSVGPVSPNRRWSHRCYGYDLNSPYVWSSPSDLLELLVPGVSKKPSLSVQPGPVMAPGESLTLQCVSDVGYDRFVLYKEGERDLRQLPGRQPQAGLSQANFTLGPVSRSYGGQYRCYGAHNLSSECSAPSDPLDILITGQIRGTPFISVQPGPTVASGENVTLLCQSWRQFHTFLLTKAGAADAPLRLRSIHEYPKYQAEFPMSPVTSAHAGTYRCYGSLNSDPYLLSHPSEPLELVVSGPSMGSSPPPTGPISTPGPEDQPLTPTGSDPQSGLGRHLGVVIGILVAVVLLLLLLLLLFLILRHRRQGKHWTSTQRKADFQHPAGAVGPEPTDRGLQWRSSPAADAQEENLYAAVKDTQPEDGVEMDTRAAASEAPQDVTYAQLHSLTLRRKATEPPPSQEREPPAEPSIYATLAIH", "experiment": "flow cytometry HLA-G blocking; hIgG4 isotype control"}
{"substance": "Isotype", "values": [{"measurement": "IC50", "value": "> 0.0667", "unit": "µM"}]}
